Patent publication US6132729 (Board of Regents, The University of Texas System, dated 2000)
Values joined by “and” are separate entries in the source; they are usually repeats but may differ in a detail not shown here. Equal values may be shown once. Read-outs that look alike come from different tables or passages of the source.

Assays:
[1] = biological target: Factor VII in Proplex T
[2] = biological target: tTF221-cys-C' (human)
[3] = biological target: H6-tTF220-cys-C' (human)
[4] = biological target: tTF219 (truncated Tissue Factor, extracellular domain of mature human Tissue Factor) (human)
[5] = biological target: H6-tTF221-cys-C' (human)
[6] = biological target: tTF220-cys-C' (human)
[7] = biological target: IgG-H6-N'-cys-tTF219 (human)
[8] = biological target: H6-N'-cys-tTF219 (human)
[9] = biological target: tTF219 (truncated Tissue Factor, extracellular domain of mature human Tissue Factor) (human); remark: listed apart in the source
[10] = biological target: tTF219 (truncated Tissue Factor, extracellular domain of mature human Tissue Factor) (human); remark: listed apart in the source
[11] = biological target: H6-tTF221-cys-C' dimer (human)
[12] = biological target: tTF219 (truncated Tissue Factor, extracellular domain of mature human Tissue Factor) (human); remark: listed apart in the source
[13] = biological target: H6-N'-cys-tTF219 dimer (human)
[14] = biological target: tTF219 (truncated Tissue Factor, extracellular domain of mature human Tissue Factor) (human); remark: listed apart in the source
[15] = biological target: H6-tTF219-cys-C' (human)
[16] = biological target: H6-N'-cys-tTF219 (human); remark: listed apart in the source
[17] = biological target: T1, Factor VIIa (recombinant human) (human); test: cell-based or functional assay
T1 chain 1: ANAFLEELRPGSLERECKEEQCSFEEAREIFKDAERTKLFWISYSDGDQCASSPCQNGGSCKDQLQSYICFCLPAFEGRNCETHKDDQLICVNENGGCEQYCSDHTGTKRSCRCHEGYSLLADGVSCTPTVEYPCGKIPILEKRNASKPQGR
T1 chain 2: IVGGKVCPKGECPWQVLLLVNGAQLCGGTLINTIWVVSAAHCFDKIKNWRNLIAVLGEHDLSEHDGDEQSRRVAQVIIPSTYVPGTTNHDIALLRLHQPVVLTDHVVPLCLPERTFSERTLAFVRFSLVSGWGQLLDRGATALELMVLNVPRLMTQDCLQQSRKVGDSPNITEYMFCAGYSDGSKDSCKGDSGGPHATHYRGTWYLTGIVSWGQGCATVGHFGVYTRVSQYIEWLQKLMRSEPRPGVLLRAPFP

IgG-H6-N'-cys-tTF219
conversion of Factor X to Xa (chromogenic substrate S-2765, OD 409 nm) (fold less active) [1]: 2

B21-2/10H10 bispecific antibody
tTF concentration at which plasma coagulated in 50 seconds [2]: 500 pM | tTF concentration at which plasma coagulated in 50 seconds [3]: 500 pM | tTF concentration at which plasma coagulated in 50 seconds [4]: 500 pM | tTF concentration at which plasma coagulated in 50 seconds [5]: 500 pM | tTF concentration at which plasma coagulated in 50 seconds [6]: 500 pM | coagulation inducing activity against the unconjugated form [7]: 5 fold reduced | tTF concentration at which plasma coagulated in 50 seconds [7]: 5 nM | tTF concentration at which plasma coagulated in 50 seconds [8]: 1 nM | tTF concentration at which plasma coagulated in 50 seconds [9]: 1 nM | tTF concentration at which plasma coagulated in 50 seconds [10]: 3 nM | tTF concentration at which plasma coagulated in 50 seconds [11]: 4 nM | tTF concentration at which plasma coagulated in 50 seconds [12]: 100 pM and 200 pM | tTF concentration at which plasma coagulated in 50 seconds [13]: 100 pM and 200 pM | clotting time of mouse plasma on A20 cells [14]: 36 s | tTF concentration at which plasma coagulated in 50 seconds [15]: 3 nM | tTF concentration at which plasma coagulated in 50 seconds [16]: 3 nM

B1: tTF219 (truncated Tissue Factor, extracellular domain of mature human Tissue Factor) (receptor)
chain: GSGTTNTVAAYNLTWKSTNFKTILEWEPKPVNQVYTVQISTKSGDWKSKCFYTTDTECDLTDEIVKDVKQTYLARVFSYPAGNVESTGSAGEPLYENSPEFTPYLETNLGQPTIQSFEQVGTKVNVTVEDERTLVRRNNTFLSLRDVFGKDLIYTLYYWKSSSSGKKTAKTNTNEFLIDVDKGENYCFSVQAVIPSRTVNRKSTDSPVECMGQEKGEFRE
coagulation-inducing potency of cell-associated tTF219 with added Factor VIIa [17]: ~100 fold
